Earlier results, collected in article PMC6952583 (Chembiochem : a European journal of chemical biology, 2019).
pEC50: −log10 of the molar value.

Biological target: ComD2 receptor (Streptococcus pneumoniae serotype 4, UniProt A0A0H2US84)
Conditions: read-out: ComD2 EC50; TIGR4pcomX::lacZ reporter strain; ref [20]

**Q.** With “CSP2(15): truncated version of CSP2, starting scaffold (EMRISRIILDFLFLR)” as the substance, how does the pEC50 read?
**A.** 7.66
